Assay results as given in patent US12539272B2, “Microemulsion-based vaccine delivery system, preparation method therefor and use thereof” (Sichuan University, priority 2020, dated 2026).

B1: chicken ovalbumin (protein, UniProt P01012 2-386, looked up)
Ovalbumin: GSIGAASMEFCFDVFKELKVHHANENIFYCPIAIMSALAMVYLGAKDSTRTQINKVVRFDKLPGFGDSIEAQCGTSVNVHSSLRDILNQITKPNDVYSFSLASRLYAEERYPILPEYLQCVKELYRGGLEPINFQTAADQARELINSWVESQTNGIIRNVLQPSSVDSQTAMVLVNAIVFKGLWEKAFKDEDTQAMPFRVTEQESKPVQMMYQIGLFRVASMASEKMKILELPFASGTMSMLVLLPDEVSGLEQLESIINFEKLTEWTSSNVMEERKIKVYLPRMKMEEKYNLTSVLMAMGITDVFSSSANLSGISSAESLKISQAVHAAHAEINEAGREVVGSAEAGVDAASVSEEFRADHPFLFCIKHIATNAVLFFGRCVSP
modifications: FITC label in uptake test
notes: free model antigen chicken ovalbumin (OVA); FITC labeled in the uptake test

Columns and labels:
DC2.4 cells = assay: Uptake of the microemulsion vaccine system by the DC2.4 cells (flow cytometer); assay type: cell-based; settings: 1.5 hours at 37° C.
Method: Uptake of the aluminum hydroxide microemulsion vaccine system by the DC2.4 cells: 1×10^6 DC2.4 cells are implanted in each well of a 12-well plate, put into an incubator for 4-6 hours, 5 μg of FITC labeled OVA or the aluminum hydroxide microemulsion entrapping the same amount of the FITC labeled OVA and prepared according to embodiment 6 are added into each well after cell anchorage. Supernatants are discarded after uptake for 1.5 hours at 37° C., cell surfaces are washed with PBS two times slightly, and then directly blown with the PBS, and the cells are centrifugally washed twice at 2000 rpm for 3 min, finally re-suspended by using 400 μl of PBS, and tested by a flow cytometer. […] In the figure, the Free OVA represents free FITC labeled OVA, and NE-OVA represents the aluminum hydroxide microemulsion entrapping the FITC labeled OVA.
Uptake of the ferric hydroxide microemulsion vaccine system by the DC2.4 cells: 1×10^6 DC2.4 cells are implanted in each well of a 12-well plate, and put into an incubator for 4-6 hours, and 2 μg of FITC labeled melanoma antigen peptide GP100 (ITDQVPFSV) or the ferric hydroxide microemulsion entrapping the same amount of the FITC labeled melanoma antigen peptide GP100 (ITDQVPFSV) prepared according to embodiment 9 is added into each well after cell anchorage. […]

mice = assay: Cytotoxic T lymphocyte (CTL) test by CFSE staining method in immunized mice; assay type: in vivo; settings: 25 μl into paws of mice on Day 0, 7, 14; 5 μg OVA, 0.5 μg CpG; CTL on Day 21
Method: Cytotoxic T lymphocyte (CTL) test and immune antibody testing of the aluminum hydroxide microemulsion vaccine system: 25 μl of the aluminum hydroxide microemulsion entrapping OVA and prepared in embodiment 6, the aluminum hydroxide microemulsion entrapping OVA and CpG and prepared in embodiment 7, and free OVA or free OVA and CpG (including 5 μg of OVA and 0.5 μg of CpG) are injected into paws of immunized mice on Day 0, Day 7 and Day 14, and CTL response in the body is tested by a CFSE staining method on Day 21. […] In the figure, OVA represents free OVA, NE-OVA represents the aluminum hydroxide microemulsion entrapping OVA, OVA+CpG represents free OVA and CpG, and NE-OVA-CpG represents the aluminum hydroxide microemulsion entrapping OVA and CpG.

Molecule	uptake by the DC2.4 cells (in words) (DC2.4 cells; 2 μg FITC labeled GP100 per well)	uptake by the DC2.4 cells (in words) (DC2.4 cells; 5 μg FITC labeled OVA per well)	antigen-specific cellular immune response (CTL) (mice)
melanoma antigen peptide GP100 (ITDQVPFSV) [Free-GP100, reference compound]	barely taken up	–	–
B1	–	barely taken up	cannot induce the antigen-specific cellular immune response
